Target: HIV-1 integrase (IN), recombinant, from the San Francisco isolate SF2 (HIV-1 (San Francisco isolate SF2))
Assay: cross-linking

Work on “HIV-1 integrase (IN), recombinant, from the San Francisco isolate SF2 (enzyme)” yielded a stoichiometry N of 2.

— article PMC549407
